Reference: paper PMC10349855, “Structural basis for specific RNA recognition by the alternative splicing factor RBM5”
Residue numbers refer to the chain shown, from its start.

Legend:
[1] = molecular target: T1, RBM5 RRM1 F142A/F144A (human, UniProt P52756 94-184, F142A;F144A); test: NMR; 20 mM MES pH 6.5, 100 mM NaCl, 1 mM DTT, 25 C; protein 0.1-0.2 mM; conditions: tags: His-thioredoxin, TEV-cleaved (scar left out)
T1 sequence: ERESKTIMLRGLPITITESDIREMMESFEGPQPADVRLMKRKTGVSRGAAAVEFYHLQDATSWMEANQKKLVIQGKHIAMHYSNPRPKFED

[2] = molecular target: T2, RBM5 RRM1-ZnF1 wt (Homo sapiens, UniProt P52756 94-210, I107T); test: ITC; Zn; 20 mM MES pH 6.5, 100 mM NaCl, 2 mM 2-mercaptoethanol, 25 C; protein 10-30 uM in the cell; one-site fit; conditions: tags: none; N-terminal Met-Gly from the NcoI site (left out)
T2 sequence: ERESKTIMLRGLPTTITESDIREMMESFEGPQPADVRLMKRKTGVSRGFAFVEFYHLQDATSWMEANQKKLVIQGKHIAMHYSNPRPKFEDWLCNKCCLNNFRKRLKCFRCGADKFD

[3] = molecular target: T3, RBM5 RRM1-ZnF1 wt (human, UniProt P52756 94-210); test: ITC; ITC: 20 mM MES pH 6.5, 100 mM NaCl, 2 mM BME, 25 C; NMR: 20 mM MES pH 6.5, 100 mM (single RRMs) or 400 mM (multidomain) NaCl, 1 mM DTT, 298 K; conditions: protein: recombinant
T3 sequence: T2 sequence with T14I

[4] = molecular target: T4, RBM5 RRM1 (human, UniProt P52756 94-184); test: ITC; 20 mM MES pH 6.5, 100 mM NaCl, 2 mM 2-mercaptoethanol, 25 C; protein 10-30 uM in the cell; one-site fit; conditions: tags: His-thioredoxin, TEV-cleaved (scar left out)
T4 sequence: T1 sequence with A49F, A51F

[5] = molecular target: T5, RBM5 RRM1-ZnF1S (Homo sapiens, UniProt P52756 94-210, I107T;C191G); test: ITC; Zn; 20 mM MES pH 6.5, 100 mM NaCl, 2 mM 2-mercaptoethanol, 25 C; protein 10-30 uM in the cell; one-site fit; conditions: tags: none; N-terminal Met-Gly from the NcoI site (left out)
T5 sequence: T2 sequence with C98G

[6] = molecular target: T6, RBM5 RRM1-ZnF1S (human, UniProt P52756 94-210, C191G); test: ITC; N about 0.6; Discussion prints 6 uM but also 2.4-fold weaker than 263 nM; ITC: 20 mM MES pH 6.5, 100 mM NaCl, 2 mM BME, 25 C; NMR: 20 mM MES pH 6.5, 100 mM (single RRMs) or 400 mM (multidomain) NaCl, 1 mM DTT, 298 K; conditions: protein: recombinant
T6 sequence: T2 sequence with T14I, C98G

[7] = molecular target: T6, RBM5 RRM1-ZnF1S; test: X-ray crystallography; Zn2+; 3.5 A; ITC: 20 mM MES pH 6.5, 100 mM NaCl, 2 mM BME, 25 C; NMR: 20 mM MES pH 6.5, 100 mM (single RRMs) or 400 mM (multidomain) NaCl, 1 mM DTT, 298 K; conditions: protein: recombinant
[8] = molecular target: T3, RBM5 RRM1-ZnF1 wt; test: ITC; average of two; text 153 nM; ITC: 20 mM MES pH 6.5, 100 mM NaCl, 2 mM BME, 25 C; NMR: 20 mM MES pH 6.5, 100 mM (single RRMs) or 400 mM (multidomain) NaCl, 1 mM DTT, 298 K; conditions: protein: recombinant
[9] = molecular target: T7, RBM5 RRM1-ZnF1 F202A (Homo sapiens, UniProt P52756 94-210, I107T;F202A); test: ITC; Zn; 20 mM MES pH 6.5, 100 mM NaCl, 2 mM 2-mercaptoethanol, 25 C; protein 10-30 uM in the cell; one-site fit; conditions: tags: none; N-terminal Met-Gly from the NcoI site (left out)
T7 sequence: T2 sequence with F109A

[10] = molecular target: T8, RBM5 RRM1-ZnF1 F142/144A (Homo sapiens, UniProt P52756 94-210, I107T;F142A;F144A); test: as above; conditions: tags: none; N-terminal Met-Gly from the NcoI site (left out)
T8 sequence: T2 sequence with F49A, F51A

[11] = molecular target: T9, RBM5 RRM1-ZnF1 R198E (Homo sapiens, UniProt P52756 94-210, I107T;R198E); test: as above; conditions: tags: none; N-terminal Met-Gly from the NcoI site (left out)
T9 sequence: T2 sequence with R105E

[12] = molecular target: T10, RBM5 RRM1-ZnF1S-RRM2 (human, UniProt P52756 94-315, C191G); test: as above; conditions: tags: His-thioredoxin, TEV-cleaved (scar left out)
T10 sequence: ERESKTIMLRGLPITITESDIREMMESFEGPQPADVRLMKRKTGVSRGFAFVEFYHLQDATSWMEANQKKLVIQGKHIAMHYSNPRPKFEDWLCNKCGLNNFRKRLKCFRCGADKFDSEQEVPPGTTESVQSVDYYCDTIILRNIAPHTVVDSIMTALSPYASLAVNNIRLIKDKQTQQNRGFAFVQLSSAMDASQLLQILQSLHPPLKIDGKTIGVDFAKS

[13] = molecular target: T11, RBM5 RRM1-ZnF1 F202A (human, UniProt P52756 94-210, F202A); test: ITC; ITC: 20 mM MES pH 6.5, 100 mM NaCl, 2 mM BME, 25 C; NMR: 20 mM MES pH 6.5, 100 mM (single RRMs) or 400 mM (multidomain) NaCl, 1 mM DTT, 298 K; conditions: protein: recombinant
T11 sequence: T2 sequence with T14I, F109A

[14] = molecular target: T12, RBM5 RRM1-ZnF1 F142A/F144A (human, UniProt P52756 94-210, F142A;F144A); test: as above; conditions: protein: recombinant
T12 sequence: T2 sequence with T14I, F49A, F51A

[15] = molecular target: T6, RBM5 RRM1-ZnF1S; test: as above; conditions: protein: recombinant
[16] = molecular target: T13, RBM5 RRM1-ZnF1 R198E (human, UniProt P52756 94-210, R198E); test: as above; conditions: protein: recombinant
T13 sequence: T2 sequence with T14I, R105E

[17] = molecular target: T14, RBM5 RRM2 (human, UniProt P52756 231-315); test: ITC; average of two; ITC: 20 mM MES pH 6.5, 100 mM NaCl, 2 mM BME, 25 C; NMR: 20 mM MES pH 6.5, 100 mM (single RRMs) or 400 mM (multidomain) NaCl, 1 mM DTT, 298 K; conditions: protein: recombinant; tags: His-Trx tag, TEV cleaved
T14 sequence: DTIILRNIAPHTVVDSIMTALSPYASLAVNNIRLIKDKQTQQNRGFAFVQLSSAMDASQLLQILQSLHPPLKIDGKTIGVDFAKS

B1: CU_9 (ssRNA)
RNA: UCUCUUCUC
binding result [1]: no binding
Kd [2]: 5560 ± 2830 nM
Kd [3]: 6000 nM
Kd [4]: 19700 ± 6500 nM

B2: eGGCU_12 (ssRNA)
RNA: ACUUGGCUCUUCUCU
Kd [5]: 641 ± 125 nM
Kd [6]: 641 ± 125 nM

B3: GGCU_10 (ssRNA)
RNA: UGGCUCUUCU
binding result [7]: binds

B4: GGCU_12 (ssRNA)
RNA: UGGCUCUUCUCU
Kd [8]: 153 nM
Kd [9]: 379 ± 41 nM
Kd [2]: 153 ± 69 nM
Kd [10]: 448 ± 36 nM
Kd [5]: 263 ± 27 nM
Kd [11]: 2660 ± 380 nM
Kd [12]: 133 ± 12 nM
Kd [13]: 379 nM
Kd [14]: 448 nM
Kd [15]: 263 ± 27 nM
Kd [16]: 2700 nM
Kd [17]: 173000 nM
Kd [4]: 1880 ± 950 nM
